Data: patent US20230183352A1 (published 2023)

Legend:
[1] = target: T1, Claudin 18.2 (CLDN18.2), expressed on CHOS-CLDN 18.2 / HEK293-CLDN 18.2 / HCC827-CLDN 18.2 cells (human, UniProt P56856-2 1-261); experiment: FACS, CHOS-CLDN18.2 cells, 1.250 µg/ml
T1 construct: whole, on cells; The species is not repeated for the CHOS-CLDN 18.2 cells; also called claudin-18A2
Procedure: (§1) The initial concentration of the antibody was 20 μg/ml, it was diluted at 1:4, and incubated at 4° C. for 60 min.

[2] = target: T1, Claudin 18.2 (CLDN18.2), expressed on …; experiment: FACS, CHOS-CLDN18.2 cells, 0.005 µg/ml
Procedure: as §1

[3] = target: T1, Claudin 18.2 (CLDN18.2), expressed on …; experiment: FACS, CHOS-CLDN18.2 cells, 0.313 µg/ml
Procedure: as §1

[4] = target: T1, Claudin 18.2 (CLDN18.2), expressed on …; experiment: FACS, CHOS-CLDN18.2 cells, 20 µg/ml
Procedure: as §1

[5] = target: T1, Claudin 18.2 (CLDN18.2), expressed on …; experiment: FACS, CHOS-CLDN18.2 cells
Procedure: as §1

[6] = target: T1, Claudin 18.2 (CLDN18.2), expressed on …; experiment: FACS, CHOS-CLDN18.2 cells, 0.313 µg/ml; remark: listed apart in the source
Procedure: as §1

[7] = target: T1, Claudin 18.2 (CLDN18.2), expressed on …; experiment: FACS, CHOS-CLDN18.2 cells, 0.078 µg/ml
Procedure: as §1

[8] = target: T1, Claudin 18.2 (CLDN18.2), expressed on …; experiment: FACS, CHOS-CLDN18.2 cells, 0.078 µg/ml; remark: listed apart in the source
Procedure: as §1

[9] = target: T1, Claudin 18.2 (CLDN18.2), expressed on …; experiment: FACS, CHOS-CLDN18.2 cells, 0.020 µg/ml
Procedure: as §1

[10] = target: T1, Claudin 18.2 (CLDN18.2), expressed on …; experiment: FACS, CHOS-CLDN18.2 cells, 0.005 µg/ml; remark: listed apart in the source
Procedure: as §1

[11] = target: T1, Claudin 18.2 (CLDN18.2), expressed on …; experiment: FACS, CHOS-CLDN18.2 cells, 0 µg/ml (background)
Procedure: as §1

[12] = target: T1, Claudin 18.2 (CLDN18.2), expressed on …; experiment: FACS, CHOS-CLDN18.2 cells, 20 µg/ml; remark: listed apart in the source
Procedure: as §1

[13] = target: T1, Claudin 18.2 (CLDN18.2), expressed on …; experiment: FACS, CHOS-CLDN18.2 cells, 1.250 µg/ml; remark: listed apart in the source
Procedure: as §1

[14] = target: T1, Claudin 18.2 (CLDN18.2), expressed on …; experiment: FACS, MFI on CHOS-CLDN18.2 over MFI on CHOS-CLDN18.1, 10 µg/ml
Procedure: The initial concentration of the antibody was 20 μg/mkit was diluted at 1:4, and incubated at 4° C. for 60 min.

[15] = target: T1, Claudin 18.2 (CLDN18.2), expressed on …; experiment: FACS, CHOS-CLDN18.2 cells, 0.313 µg/ml; remark: listed apart in the source
Procedure: as §1

[16] = target: T1, Claudin 18.2 (CLDN18.2), expressed on …; experiment: FACS, CHOS-CLDN18.2 cells, 0.020 µg/ml; remark: listed apart in the source
Procedure: as §1

[17] = target: T1, Claudin 18.2 (CLDN18.2), expressed on …; experiment: FACS, CHOS-CLDN18.2 cells, 0.078 µg/ml; remark: listed apart in the source
Procedure: as §1

[18] = target: T1, Claudin 18.2 (CLDN18.2), expressed on …; experiment: FACS, CHOS-CLDN18.2 cells, 5 µg/ml
Procedure: as §1

FACS reading [1]: 63700 | FACS reading [2]: 2830 | FACS reading [3]: 51000 | FACS reading [4]: 72300 | EC50 [5]: 0.27 µg/mL | max [5]: 88600 | FACS reading [6]: 51000 | FACS reading [7]: 18200 | FACS reading [8]: 18200 | FACS reading [9]: 6950 | FACS reading [10]: 2830 | FACS reading [11]: 732 | FACS reading [12]: 72300 | FACS reading [13]: 63700 | CLDN18.2/CLDN18.1 (MFI ratio) [14]: 104 | FACS reading [15]: 51000 | FACS reading [16]: 6950 | FACS reading [17]: 18200 | FACS reading [18]: 105000
B1: QP024025 (antibody, human IgG1, V domains shown)
VH: QVQLQQPGAELVRPGASVKLSCKASGYTFTSYWINWVKQRPGQGLEWIGNIYPSDSYTNYNQKFKDKATLTVDKSSSTAYMQLSSPTSEDSAVYYCTRSWRGNSFDYWGQGTTLTVSS
VL: DIVMTQSPSSLTVTAGEKVTMSCKSSQSLLNSGNQKNYLTWYQQKPGQPPKLLIYWASTRESGVPDRFTGSGSGTDFTLTISSVQAEDLAVYYCQNDYSYPFTFGSGTKLEIK
notes: also called IMAB362; 175D10(IMAB362)
